# Experimental data published in patent publication US20240109955A1.
# Read-outs that look alike come from different tables or passages of the source.
# Tests used:
# Assay in all cases: cell-based or functional assay
# [1] = biological target: SARS-CoV-2 spike protein, Delta variant (B.1.617.2) (SARS-CoV-2)
# [2] = biological target: SARS-CoV-2 spike (S) protein, Omicron variant BA.2 (SARS-CoV-2) (UniProt P0DTC2)
# [3] = biological target: SARS-CoV-2 spike (S) protein, Iota variant (B.1.526) (SARS-CoV-2) (UniProt P0DTC2)
# [4] = biological target: SARS-CoV-2 spike protein, Omicron sublineage BA.1.1 (R346K) (SARS-CoV-2) (UniProt P0DTC2)
# [5] = biological target: SARS-CoV-2 spike (S) protein, C.1.2 variant (SARS-CoV-2) (UniProt P0DTC2)
# [6] = biological target: SARS-CoV-2 spike protein, Beta variant 1 (B.1.351.v1) (SARS-CoV-2)
# [7] = biological target: SARS-CoV-2 spike (S) protein, Mu variant (B.1.621) (SARS-CoV-2) (UniProt P0DTC2)
# [8] = biological target: SARS-CoV-2 spike (S) protein, Omicron variant BA.4/5 (SARS-CoV-2) (UniProt P0DTC2)
# [9] = biological target: SARS-CoV-2 spike (S) protein, Omicron variant BA.2.12.1 (SARS-CoV-2) (UniProt P0DTC2)
# [10] = biological target: SARS-CoV-2 spike protein, Alpha variant (B.1.1.7) (SARS-CoV-2)
# [11] = biological target: SARS-CoV-2 spike protein, Omicron variant (B.1.1.529) (SARS-CoV-2) (UniProt P0DTC2)
# [12] = biological target: SARS-CoV-2 spike (S) protein, Omicron variant BA.1 (SARS-CoV-2) (UniProt P0DTC2)
# [13] = biological target: SARS-CoV-2 spike (S) protein, Omicron variant BA1.1.529 (SARS-CoV-2) (UniProt P0DTC2)
# [14] = biological target: SARS-CoV-2 spike (S) protein, Lambda variant (C.37) (SARS-CoV-2) (UniProt P0DTC2)
# [15] = biological target: SARS-CoV-2 spike protein, Gamma variant (P.1) (SARS-CoV-2)
# [16] = biological target: SARS-CoV-2 spike protein, Omicron variant BA1.1.529 (SARS-CoV-2) (UniProt P0DTC2)
# [17] = biological target: SARS-CoV-2 spike protein, Omicron variant BA.1 (SARS-CoV-2) (UniProt P0DTC2)
# [18] = biological target: SARS-CoV-2 Omicron BA.4.6 spike protein (R346T, F486V) (SARS-CoV-2) (UniProt P0DTC2)
# [19] = biological target: SARS-CoV-2 spike protein, Omicron variant BA.2 (SARS-CoV-2) (UniProt P0DTC2)
# [20] = biological target: SARS-CoV-2 spike protein, Omicron variant BA.2.12.1 (SARS-CoV-2) (UniProt P0DTC2)
# [21] = biological target: SARS-CoV-2 Omicron variant XBB spike protein (SARS-CoV-2)
# [22] = biological target: SARS-CoV-2 Omicron variant BA.2.75.2 spike protein (SARS-CoV-2)
# [23] = biological target: SARS-CoV-2 spike (S) protein, Omicron sublineage BQ 1.1 (R346T, K444T, F486V) (SARS-CoV-2) (UniProt P0DTC2)
# [24] = biological target: SARS-CoV-2 spike (S) protein, Omicron sublineage BA.1.1 (R346K) (SARS-CoV-2) (UniProt P0DTC2)
# [25] = biological target: SARS-CoV-2 spike (S) protein, Omicron sublineage BA.4.6 (R346T, F486V) (SARS-CoV-2) (UniProt P0DTC2)
# [26] = biological target: SARS-CoV-2 spike (S) protein, Omicron sublineage BA.4.7 (R346S, F486V) (SARS-CoV-2) (UniProt P0DTC2)
# [27] = biological target: SARS-CoV-2 Omicron variant BQ.1.1 spike protein (SARS-CoV-2)
# [28] = biological target: SARS-CoV-2 spike (S) protein, Omicron sublineage BF.7 (R346T, F486V) (SARS-CoV-2) (UniProt P0DTC2)
# [29] = biological target: SARS-CoV-2 Omicron variant BA.4/5 spike protein (SARS-CoV-2)
# [30] = biological target: SARS-CoV-2 spike protein, Omicron variant BQ.1.1 (SARS-CoV-2)
# [31] = biological target: SARS-CoV-2 spike protein, Omicron variant BA.4/5 (SARS-CoV-2)
# [32] = biological target: SARS-CoV-2 spike protein, Omicron variant BA.2.75.2 (SARS-CoV-2)
# [33] = biological target: SARS-CoV-2 spike (S) protein, Alpha variant (B.1.1.7) (SARS-CoV-2) (UniProt P0DTC2)
# [34] = biological target: SARS-CoV-2 spike protein, Omicron sublineage BQ.1.1 (R346T, K444T, F486V) (SARS-CoV-2) (UniProt P0DTC2)
# [35] = biological target: SARS-CoV-2 spike protein, Omicron sublineage BA.1.1 (R346K) (SARS-CoV-2) (UniProt P0DTC2); remark: listed apart in the source
# [36] = biological target: SARS-CoV-2 spike protein, Omicron sublineage BA.4.7 (R346S, F486V) (SARS-CoV-2) (UniProt P0DTC2)
# [37] = biological target: SARS-CoV-2 spike protein, Omicron sublineage BF.7 (R346T, F486V) (SARS-CoV-2) (UniProt P0DTC2)
# [38] = biological target: SARS-CoV-2 spike protein, Omicron sublineage BA.4.6 (R346T, F486V) (SARS-CoV-2) (UniProt P0DTC2)
# A19-46 (antibody), sequence (VH): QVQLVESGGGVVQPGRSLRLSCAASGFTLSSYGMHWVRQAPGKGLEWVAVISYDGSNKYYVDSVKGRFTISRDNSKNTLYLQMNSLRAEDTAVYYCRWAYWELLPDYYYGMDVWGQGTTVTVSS
# A19-46 (antibody), sequence (VL): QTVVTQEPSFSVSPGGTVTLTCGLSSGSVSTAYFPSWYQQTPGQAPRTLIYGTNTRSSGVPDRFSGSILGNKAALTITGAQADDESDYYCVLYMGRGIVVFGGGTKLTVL
# A19-46.1 (antibody), sequence (VH): as the sequence (VH) above
# A19-46.1 (antibody), sequence (VL): as the sequence (VL) above
substance,measurement,setting,value
B1-182.1 (antibody),"IC50, pseudovirus neutralization",[1],0.0099 nM
same,"IC80, pseudovirus neutralization",[1],0.0254 nM
same,pseudovirus neutralization IC50 (nM (inferred)),[2],2.12
same,pseudovirus neutralization IC80 (nM (inferred)),[2],8.5
same,pseudovirus neutralization IC50 (nM (inferred)),[3],0.0639
same,pseudovirus neutralization IC80 (nM (inferred)),[3],0.183
same,"IC50, pseudovirus neutralization",[4],213 nM
same,"IC80, pseudovirus neutralization",[4],1300 nM
same,pseudovirus neutralization IC50 (nM (inferred)),[5],0.0549
same,pseudovirus neutralization IC80 (nM (inferred)),[5],0.11
same,"IC50, pseudovirus neutralization",[6],0.0357 nM
same,"IC80, pseudovirus neutralization",[6],0.139 nM
same,pseudovirus neutralization IC50 (nM (inferred)),[7],0.0695
same,pseudovirus neutralization IC80 (nM (inferred)),[7],0.219
same,pseudovirus neutralization IC50 (nM (inferred)),[8],> 66.7
same,pseudovirus neutralization IC80 (nM (inferred)),[8],> 66.7
same,pseudovirus neutralization IC50 (nM (inferred)),[9],0.739
same,pseudovirus neutralization IC80 (nM (inferred)),[9],5.92
same,"IC50, pseudovirus neutralization",[10],0.0262 nM
same,"IC80, pseudovirus neutralization",[10],0.0844 nM
same,"IC50, pseudovirus neutralization",[11],401 nM
same,"IC80, pseudovirus neutralization",[11],1020 nM
same,pseudovirus neutralization IC50 (nM (inferred)),[12],1.03
same,pseudovirus neutralization IC80 (nM (inferred)),[12],4.44
same,pseudovirus neutralization IC50 (nM (inferred)),[13],2.55
same,pseudovirus neutralization IC80 (nM (inferred)),[13],6.47
same,pseudovirus neutralization IC50 (nM (inferred)),[14],0.0049
same,pseudovirus neutralization IC80 (nM (inferred)),[14],0.015
same,"IC50, pseudovirus neutralization",[15],0.0182 nM
same,"IC80, pseudovirus neutralization",[15],0.0429 nM
A19-46.1 (antibody),"IC50, pseudovirus neutralization",[1],> 66.7 nM
same,"IC80, pseudovirus neutralization",[1],> 66.7 nM
same,pseudovirus neutralization IC50 (nM (inferred)),[3],0.803
same,pseudovirus neutralization IC80 (nM (inferred)),[3],1.88
same,"IC50, pseudovirus neutralization",[16],1.84 nM
same,"IC80, pseudovirus neutralization",[16],2.84 nM
same,pseudovirus neutralization IC50 (nM (inferred)),[5],11.6
same,pseudovirus neutralization IC80 (nM (inferred)),[5],21
same,"IC50, pseudovirus neutralization",[17],0.958 nM
same,"IC80, pseudovirus neutralization",[17],2.28 nM
same,"IC50, pseudovirus neutralization",[6],0.807 nM
same,"IC80, pseudovirus neutralization",[6],2.07 nM
same,"IC50, pseudovirus neutralization",[18],> 10000 nM
same,"IC80, pseudovirus neutralization",[18],> 10000 nM
same,pseudovirus neutralization IC50 (nM (inferred)),[7],1.34
same,pseudovirus neutralization IC80 (nM (inferred)),[7],3.81
same,"IC50, pseudovirus neutralization",[19],0.69 nM
same,"IC80, pseudovirus neutralization",[19],2.23 nM
same,"IC50, pseudovirus neutralization",[10],0.19 nM
same,"IC80, pseudovirus neutralization",[10],0.486 nM
same,pseudovirus neutralization IC50 (nM (inferred)),[14],> 66.7
same,pseudovirus neutralization IC80 (nM (inferred)),[14],> 66.7
same,"IC50, pseudovirus neutralization",[20],> 66.7 nM
same,"IC80, pseudovirus neutralization",[20],> 66.7 nM
same,"IC50, pseudovirus neutralization",[15],0.26 nM
same,"IC80, pseudovirus neutralization",[15],0.7 nM
bebtelovimab (LY1404) (antibody),"IC50, pseudovirus neutralization",[21],> 10 mg/L
same,"IC80, pseudovirus neutralization",[21],> 10 mg/L
same,"IC50, pseudovirus neutralization",[22],0.00567 mg/L
same,"IC80, pseudovirus neutralization",[22],0.0207 mg/L
same,"IC50, pseudovirus neutralization",[23],> 10000 nM
same,"IC80, pseudovirus neutralization",[23],> 10000 nM
same,"IC50, pseudovirus neutralization",[24],26.4 nM
same,"IC80, pseudovirus neutralization",[24],65.1 nM
same,"IC50, pseudovirus neutralization",[25],22.3 nM
same,"IC80, pseudovirus neutralization",[25],25.4 nM
same,"IC50, pseudovirus neutralization",[26],5.9 nM
same,"IC80, pseudovirus neutralization",[26],16.1 nM
same,"IC50, pseudovirus neutralization",[27],> 10 mg/L
same,"IC80, pseudovirus neutralization",[27],> 10 mg/L
same,"IC50, pseudovirus neutralization",[28],16.9 nM
same,"IC80, pseudovirus neutralization",[28],25.2 nM
A19-46 (antibody),"IC50, pseudovirus neutralization",[22],> 10 mg/L
same,"IC80, pseudovirus neutralization",[22],> 10 mg/L
same,"IC50, pseudovirus neutralization",[29],> 10 mg/L
same,"IC80, pseudovirus neutralization",[29],> 10 mg/L
same,"IC50, pseudovirus neutralization",[30],0.386 mg/L
same,"IC80, pseudovirus neutralization",[30],1.11 mg/L
same,"IC50, pseudovirus neutralization",[31],> 10 mg/L
same,"IC80, pseudovirus neutralization",[31],> 10 mg/L
same,"IC50, pseudovirus neutralization",[27],0.386 mg/L
same,"IC80, pseudovirus neutralization",[27],1.11 mg/L
same,"IC50, pseudovirus neutralization",[32],> 10 mg/L
same,"IC80, pseudovirus neutralization",[32],> 10 mg/L
A19-61.1 (antibody),"IC50, pseudovirus neutralization",[1],0.209 nM
same,"IC80, pseudovirus neutralization",[1],0.292 nM
same,pseudovirus neutralization IC50 (nM (inferred)),[2],0.0607
same,pseudovirus neutralization IC80 (nM (inferred)),[2],0.17
same,pseudovirus neutralization IC50 (nM (inferred)),[3],0.0418
same,pseudovirus neutralization IC80 (nM (inferred)),[3],0.0836
same,pseudovirus neutralization IC50 (nM (inferred)),[5],8.43
same,"IC50, pseudovirus neutralization",[6],0.0686 nM
same,"IC80, pseudovirus neutralization",[6],0.113 nM
same,"IC50, pseudovirus neutralization",[18],540 nM
same,"IC80, pseudovirus neutralization",[18],2170 nM
same,pseudovirus neutralization IC50 (nM (inferred)),[7],0.264
same,pseudovirus neutralization IC80 (nM (inferred)),[7],0.43
same,pseudovirus neutralization IC50 (nM (inferred)),[8],0.128
same,pseudovirus neutralization IC80 (nM (inferred)),[8],0.322
same,pseudovirus neutralization IC50 (nM (inferred)),[9],0.11
same,pseudovirus neutralization IC80 (nM (inferred)),[9],0.298
same,"IC50, pseudovirus neutralization",[10],0.175 nM
same,"IC80, pseudovirus neutralization",[10],0.325 nM
same,pseudovirus neutralization IC50 (nM (inferred)),[12],> 66.7
same,pseudovirus neutralization IC80 (nM (inferred)),[12],> 66.7
same,pseudovirus neutralization IC50 (nM (inferred)),[13],> 66.7
same,pseudovirus neutralization IC80 (nM (inferred)),[13],> 66.7
same,pseudovirus neutralization IC50 (nM (inferred)),[14],0.11
same,pseudovirus neutralization IC80 (nM (inferred)),[14],0.186
same,"IC50, pseudovirus neutralization",[15],0.135 nM
same,"IC80, pseudovirus neutralization",[15],0.288 nM
LY-CoV555 (antibody),pseudovirus neutralization IC50,[2],> 67 nM
same,pseudovirus neutralization IC80,[2],> 67 nM
same,pseudovirus neutralization IC50,[33],0.0145 nM
same,pseudovirus neutralization IC80,[33],0.0361 nM
same,pseudovirus neutralization IC50,[12],> 67 nM
same,pseudovirus neutralization IC80,[12],> 67 nM
bebtelovimab (antibody),"IC50, pseudovirus neutralization",[34],> 10000 nM
same,"IC80, pseudovirus neutralization",[34],> 10000 nM
same,"IC50, pseudovirus neutralization",[35],26.4 nM
same,"IC80, pseudovirus neutralization",[35],65.1 nM
same,"IC50, pseudovirus neutralization",[36],11.4 nM
same,"IC80, pseudovirus neutralization",[36],22.4 nM
same,"IC50, pseudovirus neutralization",[37],8.51 nM
same,"IC80, pseudovirus neutralization",[37],24.5 nM
same,"IC50, pseudovirus neutralization",[38],11.5 nM
same,"IC80, pseudovirus neutralization",[38],28.1 nM
same,"IC50, pseudovirus neutralization",[4],26.4 nM
same,"IC80, pseudovirus neutralization",[4],65.1 nM
same,"IC80, pseudovirus neutralization",[18],1 nM
same,"IC50, pseudovirus neutralization",[11],0.32 nM
same,"IC80, pseudovirus neutralization",[11],15.6 nM
